Laboratory results: the supplement of paper PMC9170038

Test system: MS2 coat protein
Assay: apparent KD of MS2 coat protein; designed switch direction (-1 OFF switch, 1 ON switch): -1; higher = weaker reporter binding
Outline: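 On Illumina chips, designed RNA switches with common flanks were made by stalled E. coli RNA polymerase. Titrations with SNAP-549-labelled MS2 coat protein, doubling from 0.7 or 1.5 nM to 3 µM, were done with no input, with 200 uM small-molecule ligand, or with an oligonucleotide input. Apparent KD is the median per design over clusters, from curve fits of normalised cluster fluorescence.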

[1] = Eterna round: R95, input ligand: microRNA oligo, concentration not stated
[2] = input ligand: microRNA oligo, concentration not stated
[3] = Eterna round: R95, input ligand: FMN 200 uM
[4] = Eterna round: R95, input ligand: none

Sequence	apparent KD of MS2 coat protein (input ligand: FMN 200 uM)	apparent KD of MS2 coat protein (input ligand: none)	apparent KD of MS2 coat protein [1]	apparent KD of MS2 coat protein [2]	apparent KD of MS2 coat protein [3]	apparent KD of MS2 coat protein [4]
GUAAACGAAGAGGAUAUUUGAUAUCAAAGCUUCAAAGAAGGCUUCACAUGAGGAUCACCCAUGUGAUCUUCAAG [Mat - Exclusion 6 - JL Mod - D17] (Eterna round: R97, puzzle: Exclusion 6)	404 nM	28.4 nM	–	–	–	–
GUAAAGUGAGGAUAUGGUAAUUUAAUUAUUAAUUAAUUAAUCCAGAAGGCACAUGAGGAUCACCCAUGUAAAGG [Mat - Exclusion 4 - D93] (puzzle: Exclusion 4)	–	–	34.6 nM	–	–	–
GUAAUUAAUGUAGGAUAUGCAAGGCGAAACAUGAGAGAAGGCCAUGUGGAUCACCCAUGUAAUGCGGUCUGCGUACAGAUCGCU [salish99_ExNG1_r4_003] (Eterna round: R96, puzzle: Exclusion NG 1)	38 nM	65.5 nM	–	16.1 nM	–	–
GUAAUUAAUGUAGGAUAUGCAAGGCGAACCUAAGCAGAAGGACAUGUGGAUCACCCAUGUAAACAUGAGGAUCACCCAUGUGCU [salish99_ExNG1_r4_006] (Eterna round: R96, puzzle: Exclusion NG 1)	1320 nM	4270 nM	–	1340 nM	–	–
GUAAUUAUAUAGGAUAUCGAAAGUAUAAUUUAACGAGAAGGAUGAACAUGAGGAUCACCCAUGUGGUAUCAUGG [JL-ex6-3.08] (puzzle: Exclusion 6)	–	–	321 nM	–	66.4 nM	219 nM
GUACGAGCCAAACACGUGGACAUGAGGAUCACCCAUGUGUCACCGGAUCCAUAGAGCUCGUCUUACCGACAAAAGCU [Eternabot (Original) Solution 17] (Eterna round: R97, puzzle: Sensor, turn-off variant 1)	28.9 nM	31.6 nM	–	–	–	–
GUACGGUAAGGAUAUUGGAGGCCAAAGCACGAGUAGUACUCUAAGAAGGUACAUGAGGAUCACCCAUGUACGAG [Eternabot (L2) Solution 63] (Eterna round: R97, puzzle: Exclusion 4)	18.8 nM	16.9 nM	–	–	–	–
GUAGAGUCAGGAUAUACGAGAUCGAAAGAUCGGCGGUCCAUACAUGAGGAUCACCCAUGUAGAAGGGACUCUAC [Omei mod 5 to Eli's favorate candidate (ch.parushev)] (Eterna round: R97, puzzle: Exclusion 2)	115 nM	18.3 nM	–	–	–	–
GUAGAGUGAGGAUAUACGAGAUCGAAAGAUCGGCGAUCCAAACAUGAGGAUCACCCAUGUAGAAGGCACUCUAC [Eli x2 4.006] (Eterna round: R97, puzzle: Exclusion 2)	202 nM	140 nM	–	–	–	–
GUAGAUCGAGUUAGGAUAUGAUUACUAUCCGAAAAUCAGAAGGAACUUGAGGAUCACCCAAGUAUAGAUGAUAU [JR_BMEx4_Sub053] (Eterna round: R97, puzzle: Brourd's mod of Exclusion 4)	21.7 nM	16.9 nM	–	–	–	–
GUAUAAUGAGUCAGGAUAUUGAUGACGCUAGGACACAAGAAGGGACAUGAGGAUCACCCAUGUUAUUAUGCGGU [Eternabot (L2) Solution 29] (Eterna round: R97, puzzle: Brourd's mod of Exclusion 4)	88.2 nM	63.9 nM	–	–	–	–
GUAUAGUGAGGAUAUAUAUGCAGUAAACCUCAAAAGAUCGAACUUGAGGAUCACCCAAGUAGAAGGCGCGAGAU [JR_Ex2_Sub052] (Eterna round: R97, puzzle: Exclusion 2)	24.5 nM	30.4 nM	–	–	–	–
GUAUAUAGUGUGAGGAUAUGCUGGUCCUUGGAUCAGCAGAAGGCACAUGAGGAUCACCCAUGUAGUUAAAUAUA [Mat - Exclusion 4 - JL Mod - D20] (puzzle: Brourd's mod of Exclusion 4)	–	–	30.1 nM	–	–	–
GUAUAUAGUGUGAGGAUAUGCUGGUCCUUGGAUCAGCAGAAGGCACAUGAGGAUCACCCAUGUAGUUUAUUUUG [Mat - Exclusion 4 - JL Mod - D7] (puzzle: Brourd's mod of Exclusion 4)	–	–	16.2 nM	–	–	–
GUAUCGUGAGGAUAUCUAGACUGACUUAGUACAUGUCAGCUGGAGAAGGCACAUGAGGAUCACCCAUGUGAUUA (puzzle: Exclusion 4)	–	–	22.2 nM	–	–	–
GUCAGCUCGUCAGGAUAUACAUCACUGCUUCGGCAGUGUAUUAAGAUCACAUGAGGAUCACCCAUGUAGAAGGGACGAGCUGAC [ENG2/2-B1] (Eterna round: R96, puzzle: Exclusion NG 2)	269 nM	21.9 nM	–	21.2 nM	–	–
GUCAGCUCGUCAGGAUAUAUAUUAACAUGAGGAUCACCCAUGUAAGAUCAGCUUCGGCAGUUAAUAUAGAAGGGACGAGCUGAC [ENG2/14-B1] (Eterna round: R96, puzzle: Exclusion NG 2)	181 nM	153 nM	–	154 nM	–	–

Sequence	apparent KD of MS2 coat protein (input ligand: FMN 200 uM)	apparent KD of MS2 coat protein (input ligand: none)	apparent KD of MS2 coat protein [1]	apparent KD of MS2 coat protein [2]	apparent KD of MS2 coat protein [3]	apparent KD of MS2 coat protein [4]
GUCAGCUCGUGAGGAUAUACAUGAUAGAUCGAUUAAUUAAUUAAUUUAACAUGAGGAUCACCCAUGUAGAAGGCACGAGCUGAC [ENG2/1-A1] (Eterna round: R96, puzzle: Exclusion NG 2)	–	–	–	30.9 nM	–	–
GUCAGCUCGUGAGGAUAUACAUGAUAGAUCGAUUAAUUAAUUAAUUUAACAUGAGGAUCACCCAUGUAGAAGGCACGAGCUGAU [ENG2/1-A2] (Eterna round: R96, puzzle: Exclusion NG 2)	–	–	–	35.8 nM	–	–
GUCAGCUCGUGAGGAUAUGAACAUGAGGAUCACCCAUGUAAGAUCAAGCUGCUUCGGCAGCAAGUUCAGAAGGUACGAGCUGAC [ENG2/10-C1] (Eterna round: R96, puzzle: Exclusion NG 2)	150 nM	130 nM	–	77.5 nM	–	–
GUCAGCUCGUGAGGAUAUGCACAUGAGGAUCACCCAUGUAAGAUCAAGCUGCUUCGGCAGCAAGUGCAGAAGGCACGAGCUGAC [ENG2/9-A1] (Eterna round: R96, puzzle: Exclusion NG 2)	137 nM	303 nM	–	138 nM	–	–
GUCAGCUCGUGAGGAUAUGUAUAUACAUGAGGAUCACCCAUGUUAGAUCUGCUUCGGCUGUAUAUACAGAAGGCACGAGCUGAC [ENG2/16-A1] (Eterna round: R96, puzzle: Exclusion NG 2)	504 nM	308 nM	–	382 nM	–	–
GUCAUCACACAUGGGAUCAACAUGAGGAUCACCCAUGUUGCCAAGCCGUUUGCACGUCUUAUCAUACGUUUUUCGAU [Mod-Jxj] (Eterna round: R97, puzzle: Sensor, turn-off variant 1)	90.2 nM	99.8 nM	–	–	–	–
GUCCGGCAUGUAGGAUAUGGAUCCGAUUAGGAUUUAGAAGGACAUGAGGAUCACCCAUGUGCAUUUAAUUAGUCAUUACCGGAU [EXclNG1-LROPPY05] (Eterna round: R96, puzzle: Exclusion NG 1)	17.4 nM	17.9 nM	–	13.6 nM	–	–
GUCCUCAUGGCGCCUAAACACAUGAGGAUCACCCAUGUACAGGCUUUUUGCCGUCUUAUAAUAAAACCGAGGAUGCG [Reanaor] (puzzle: Sensor v3, turn-off variant 1)	–	–	157 nM	–	103 nM	148 nM
GUCGUACAUGAGGAUCACCCAUGUGAGGAUAUAGGUAGCAACCAGAAAUGGUUGCUACCUAGAAGGCGCAUGAU [Malcxlusion 10 - Jieux - Exclusion 1] (Eterna round: R97, puzzle: Exclusion 1)	529 nM	104 nM	–	–	–	–
GUCGUACAUGAGGAUCACCCAUGUGAGGAUAUGGGCGGCGCCGCAAAAGCGGCGCCGCCCAGAAGGCGCAUGAU [Malcxlusion 6 - Jieux - Exclusion 1] (Eterna round: R97, puzzle: Exclusion 1)	234 nM	79.6 nM	–	–	–	–
GUCGUGCGGCAGUGCUGUACGAGUACAUGAGGAUCACCCAUGUAGGAUAUGGUUCGUUUUGCGUGCUAGAAGGGCGUGCGUUGG [Excl-NG3-LRO21] (Eterna round: R96, puzzle: Exclusion NG 3)	19.3 nM	21.4 nM	–	16.3 nM	–	–
GUCGUGCGGCAGUGCUGUACGAGUACAUGAGGAUCACCCAUGUAGGAUAUGGUUCGUUUUGCGUGCUAGAAGGGCGUGCGUUUA [Excl-NG3-LRO19] (Eterna round: R96, puzzle: Exclusion NG 3)	18.4 nM	21.2 nM	–	18.2 nM	–	–
GUCUACCAGCUAGGAUAUGCAGUACAUUAAAAUGUAGAAGGAGCACGAUCCAGACAUGAGGAUCACCCAUGUGGGCGGUAGGCA [Aques] (Eterna round: R96, puzzle: Exclusion NG 1)	–	–	–	15.6 nM	–	–
GUCUCGUCAGGAUAUGACGCUACAUUUUUUUUUUAGAAGAGUCAGAAGGGACAUGAGGAUCACCCAUGUGAUUC [Ex4 - 3 - 2] (puzzle: Exclusion 4)	–	–	167 nM	–	–	–
GUCUUGAUAGGAUAUACAUGAGGAUCACCCAUGUCCCACCCGUUACCUCUGACCCUAUGUAGAAGGAUCGUCUG [Exy#18] (Eterna round: R97, puzzle: Exclusion 3)	30.4 nM	35.5 nM	–	–	–	–
GUGCAGCUAGGAUAUACCGAAUGGGCCGAGCCGAAAAUAUUACAUGAGGAUCACCCAUGUAGAAGGAGCCAAUU [Eternabot (Original) Solution 22] (Eterna round: R97, puzzle: Exclusion 2)	64.5 nM	34.7 nM	–	–	–	–
GUGCCGCGAGGAUAUACAGACGGGUCCAGUACGUGUCUUGGACUUGAGGAUCACCCAAGUAGAAGGCGUCUCAG [salish99_ex2_r4_612] (Eterna round: R97, puzzle: Exclusion 2)	37.6 nM	48.9 nM	–	–	–	–
